This is an account of results in US20260183373A1 (Genentech, published 2026).

Where two headings read alike, the source gives them in different places.

One may read the Kd as the constant that tells how readily two partners part at equilibrium. Low readings indicate higher affinity, high ones lower affinity. In general, koff refers to the rate constant with which the complex falls apart. A lower koff goes with slow dissociation. A word on the kon: it is a measure of how fast the partners come together. A high value points to fast association.

The target of assay [1] is T1, human IgG1 Fc (human, UniProt P01857-1 104-330 = IgG part, limits assumed).
T1 construct: domain: Fc; also called Fc domain of human IgG1
Put plainly: SPR: chimeric antibody captured by anti-mouse antibody on CM5 chip, human IgG1 Fc injected. A general note: SPR reads the build-up and loss of mass on a sensor chip optically.

Assay [2] concerns the target T2, Aβ(1-40) (UniProt P05067 672-711). The assay can be described thus: cell-based or functional assay.
The target in assay [3] is T3, anti-HER2 antibody 4D5, IgG1 subtype.
T3 construct: Captured on a Protein L chip as the IgG1 target of the RF61-MMP3 fusion constructs
Put plainly: SPR: 4D5 IgG1 captured on Protein L chip, RF61-MMP3 fusion constructs injected; monovalent affinity of the targeting arm.
Procedure: RF61 surface plasmon resonance: RF61 affinity for human IgG was assessed with a Biacore 8K+ or T200. For rounds one and two of affinity maturation, the Fc domain of human IgG1 was captured on a Series S Protein A chip according to the manufacturer's protocols. Serial dilutions of the RF61 Fab variants were prepared in HBS-P+ buffer. The dilutions were passed over the chip for 4 min, followed by a 5 min dissociation step. Variants were assessed using the response units at the point of late analyte binding normalized to Fc capture level. […] Serial dilutions of human IgG1 Fc in HBS-P+ were passed over the chip for 10 minutes, followed by a 6 min dissociation step. Affinity constants were obtained through kinetic fitting using the Biacore Evaluation Software (GE). […] A single 1000 nM concentration of each binding ablation variant was passed over the chip for 10 minutes, followed by a 6 min dissociation step. […] Serial dilutions of the RF61-MMP3 fusion constructs were prepared in HBS-P+ buffer. The dilutions were flowed over the chip for 3 min, followed by 8 min of dissociation. […] Affinity constants were determined as described above.

Assay [4] concerns the target T4, Aβ(1-28) (UniProt P05067 672-699).
T4 construct: domain: Aβ(1-28); also called amyloid-β 1-28
Put plainly: SPR (Biacore T200): fusion captured on a protein A chip, Aβ(1-28) injected as analyte.
Procedure: Aβ surface plasmon resonance: Solution affinity constants for anti-Aβ antibodies were assessed on a Biacore™ T200. […] Affinity constants were obtained through kinetic fitting using the Biacore Evaluation Software.

Assay [5] has as its target T5, Aβ(1-42) (UniProt P05067 672-713). Put plainly: cell-based or functional assay.
Assay [6] addresses T2, Aβ(1-40). Put plainly: cell-based or functional assay. The source holds these as a separate data set.
The target in assay [7] is T5, Aβ(1-42). Put plainly: cell-based or functional assay. The source holds these as a separate data set.
In assay [8] the target is T2, Aβ(1-40). The assay can be described thus: cell-based or functional assay. This is another data set of the same source.

B1: RF61 chimeric antibody variant R50D LC, S62P L95N T100aA D100cE M100eF HC (mouse IgG2a constant domains) (antibody, V domains shown)
VH: QLQLQESGPGLVKPSETLSLTCTVSGGSISRGSHYWGWIRQPPGKGLEWIGSIYYSGNTYFNPPLKSRVTISVDTSKNQFSLKLSSVTAADTAVYYCARNGPDDYALEGFDVWGQGTTVTVSS
VL: QSVLTQPPSASGTPGQRVTISCSGSSSNIGSNYVYWYQQLPGTAPKLLIYDNNQRPSGVPDRFSGSKSGTSASLAISGLRSEDEADYYCATWDDSLSAVIFGGGTKLTVL
notes: Round 3 variant, one of the eight; copies: 2 + 2
Turning to B1, the binding result in assay [1] is “binds”.

B2: RF61 chimeric antibody variant R50D Y34F LC, S62P L95N D100cE M100eF HC (mouse IgG2a constant domains) (antibody, V domains shown)
VH: QLQLQESGPGLVKPSETLSLTCTVSGGSISRGSHYWGWIRQPPGKGLEWIGSIYYSGNTYFNPPLKSRVTISVDTSKNQFSLKLSSVTAADTAVYYCARNGPDDYTLEGFDVWGQGTTVTVSS
VL: QSVLTQPPSASGTPGQRVTISCSGSSSNIGSNYVFWYQQLPGTAPKLLIYDNNQRPSGVPDRFSGSKSGTSASLAISGLRSEDEADYYCATWDDSLSAVIFGGGTKLTVL
notes: as for B1
B2: the binding result in assay [1] is on record as “binds”.

B3: RF61 chimeric antibody variant R50N Y34F LC, S62P D99H D100cE M100eF HC (mouse IgG2a constant domains) (antibody, V domains shown)
VH: QLQLQESGPGLVKPSETLSLTCTVSGGSISRGSHYWGWIRQPPGKGLEWIGSIYYSGNTYFNPPLKSRVTISVDTSKNQFSLKLSSVTAADTAVYYCARLGPDHYTLEGFDVWGQGTTVTVSS
VL: QSVLTQPPSASGTPGQRVTISCSGSSSNIGSNYVFWYQQLPGTAPKLLIYNNNQRPSGVPDRFSGSKSGTSASLAISGLRSEDEADYYCATWDDSLSAVIFGGGTKLTVL
notes: as for B1
Take B3: the binding result in assay [1] is recorded as “binds”.

B4: RF61 chimeric antibody variant R50D Y34F LC, S62P D99H M100eF HC (mouse IgG2a constant domains) (antibody, V domains shown)
VH: QLQLQESGPGLVKPSETLSLTCTVSGGSISRGSHYWGWIRQPPGKGLEWIGSIYYSGNTYFNPPLKSRVTISVDTSKNQFSLKLSSVTAADTAVYYCARLGPDHYTLDGFDVWGQGTTVTVSS
VL: QSVLTQPPSASGTPGQRVTISCSGSSSNIGSNYVFWYQQLPGTAPKLLIYDNNQRPSGVPDRFSGSKSGTSASLAISGLRSEDEADYYCATWDDSLSAVIFGGGTKLTVL
notes: as for B1
For B4, the binding result in assay [1] is recorded as “binds”.

B5: RF61 chimeric antibody variant R50N LC, S62P L95N D99H T100aA D100cE M100eF HC (mouse IgG2a constant domains) (antibody, V domains shown)
VH: QLQLQESGPGLVKPSETLSLTCTVSGGSISRGSHYWGWIRQPPGKGLEWIGSIYYSGNTYFNPPLKSRVTISVDTSKNQFSLKLSSVTAADTAVYYCARNGPDHYALEGFDVWGQGTTVTVSS
VL: QSVLTQPPSASGTPGQRVTISCSGSSSNIGSNYVYWYQQLPGTAPKLLIYNNNQRPSGVPDRFSGSKSGTSASLAISGLRSEDEADYYCATWDDSLSAVIFGGGTKLTVL
notes: as for B1
As for B5, in assay [1], the binding result was “binds”.

B6: RF61 chimeric antibody variant R50N LC, L95N D99H T100aA HC (mouse IgG2a constant domains) (antibody, V domains shown)
VH: QLQLQESGPGLVKPSETLSLTCTVSGGSISRGSHYWGWIRQPPGKGLEWIGSIYYSGNTYFNPSLKSRVTISVDTSKNQFSLKLSSVTAADTAVYYCARNGPDHYALDGMDVWGQGTTVTVSS
VL: QSVLTQPPSASGTPGQRVTISCSGSSSNIGSNYVYWYQQLPGTAPKLLIYNNNQRPSGVPDRFSGSKSGTSASLAISGLRSEDEADYYCATWDDSLSAVIFGGGTKLTVL
notes: as for B1
As for B6, the binding result in assay [1] is recorded as “binds”.

B7: anti-gD Control (antibody, human IgG1, kappa)
heavy chain with neprolysin fused to its C-terminus: not shown
light chain: DIQMTQSPSSLSASVGDRVTITCRASASVDSYGNSFIHWYQQKPGKAPKLLIYRASDLESGVPSRFSGSGSGTDFTLTISSLQPEDFATYYCQQNYADPFTFGQGTKVEIKRTVAAPSVFIFPPSDEQLKSGTASVVCLLNNFYPREAKVQWKVDNALQSGNSQESVTEQDSKDSTYSLSSTLTLSKADYEKHKVYACEVTHQGLSSPVTKSFNRGEC
As for B7, the “EC50 of Aβ(1-40) cleavage (intact Aβ by ELISA)” value in assay [2] worked out at 11 nM.

B8: Fab-NTF(LC)-1 format, MMP3-D4K-4, RF61-D (Fab)
heavy: QLQLQESGPGLVKPSETLSLTCTVSGGSISRGSHYWGWIRQPPGKGLEWIGSIYYSGNTYFNPSLKSRVTISVDTSKNQFSLKLSSVTAADTAVYYCARLGPDDYTLDGMDVWGQGTTVTVSSASTKGPSVFPLAPSSKSTSGGTAALGCLVKDYFPEPVTVSWNSGALTSGVHTFPAVLQSSGLYSLSSVVTVPSSSLGTQTYICNVNHKPSNTKVDKKVEPKSCDKTHTDYKDDDDK
light: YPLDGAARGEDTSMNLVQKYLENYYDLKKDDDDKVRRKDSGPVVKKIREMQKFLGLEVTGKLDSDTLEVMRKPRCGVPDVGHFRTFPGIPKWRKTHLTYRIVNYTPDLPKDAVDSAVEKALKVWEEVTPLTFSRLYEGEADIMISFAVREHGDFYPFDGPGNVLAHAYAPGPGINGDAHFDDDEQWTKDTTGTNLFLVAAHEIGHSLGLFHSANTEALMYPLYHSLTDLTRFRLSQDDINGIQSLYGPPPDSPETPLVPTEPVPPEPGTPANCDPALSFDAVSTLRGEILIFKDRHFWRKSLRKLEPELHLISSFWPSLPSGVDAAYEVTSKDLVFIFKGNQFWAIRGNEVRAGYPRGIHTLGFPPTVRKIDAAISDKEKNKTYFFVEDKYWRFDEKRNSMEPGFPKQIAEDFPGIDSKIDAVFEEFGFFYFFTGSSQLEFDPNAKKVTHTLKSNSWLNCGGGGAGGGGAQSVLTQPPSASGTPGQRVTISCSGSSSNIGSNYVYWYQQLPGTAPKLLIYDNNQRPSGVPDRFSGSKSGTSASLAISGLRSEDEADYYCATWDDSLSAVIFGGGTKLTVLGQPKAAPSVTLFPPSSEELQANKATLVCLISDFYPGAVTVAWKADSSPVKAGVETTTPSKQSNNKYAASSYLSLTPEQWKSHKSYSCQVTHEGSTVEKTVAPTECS
notes: MMP3-D4K-4 fused to the N-terminus of the light chain; also called RF61-D Fab fusion
B8 returned a Kd in assay [3] of 104 nM.

B9: IgG-CTF-2 format, neprolysin, crenezumab G33S(HC) (antibody)
heavy: not shown
light: DIVMTQSPLSLPVTPGEPASISCRSSQSLVYSNGDTYLHWYLQKPGQSPQLLIYKVSNRFSGVPDRFSGSGSGTDFTLKISRVEAEDVGVYYCSQSTHVPWTFGQGTKVEIKRTVAAPSVFIFPPSDEQLKSGTASVVCLLNNFYPREAKVQWKVDNALQSGNSQESVTEQDSKDSTYSLSSTLTLSKADYEKHKVYACEVTHQGLSSPVTKSFNRGEC
notes: Variant of m9
B9: in assay [4], the affinity, expressed as Kd, was 1.8 nM; the koff was 0.0013 s⁻¹; the on-rate (kon) worked out at 750000 M⁻¹ s⁻¹. In assay [2], the “EC50 of Aβ(1-40) cleavage (intact Aβ by ELISA)” value turned out to be 1.6 nM.

B10: IgG-CTF-2 format, neprolysin, solanezumab (antibody)
heavy: not shown
light: DVVMTQSPLSLPVTLGQPASISCRSSQSLIYSDGNAYLHWFLQKPGQSPRLLIYKVSNRFSGVPDRFSGSGSGTDFTLKISRVEAEDVGVYYCSQSTHVPWTFGQGTKVEIKRTVAAPSVFIFPPSDEQLKSGTASVVCLLNNFYPREAKVQWKVDNALQSGNSQESVTEQDSKDSTYSLSSTLTLSKADYEKHKVYACEVTHQGLSSPVTKSFNRGEC
notes: Human IgG1 with NEP fused to the C-terminus of both heavy chains; also called solanezumab-NEP fusion
In assay [4], B10 showed a Kd of 0.5 nM, a koff of 0.00014 s⁻¹ and a kon of 300000 M⁻¹ s⁻¹. Further, in assay [2], the “EC50 of Aβ(1-40) cleavage (intact Aβ by ELISA)” value is 3.9 nM.

B11: IgG-CTF-2 format, neprolysin, crenezumab (antibody)
heavy: not shown
light: DIVMTQSPLSLPVTPGEPASISCRSSQSLVYSNGDTYLHWYLQKPGQSPQLLIYKVSNRFSGVPDRFSGSGSGTDFTLKISRVEAEDVGVYYCSQSTHVPWTFGQGTKVEIKRTVAAPSVFIFPPSDEQLKSGTASVVCLLNNFYPREAKVQWKVDNALQSGNSQESVTEQDSKDSTYSLSSTLTLSKADYEKHKVYACEVTHQGLSSPVTKSFNRGEC
notes: Human IgG1 with NEP fused to the C-terminus of both heavy chains; also called crenezumab-NEP fusion
On to B11, for which the “potency of Aβ cleavage, fold over the non-targeted control” value in assay [5] was roughly 9 fold. Besides, in assay [6], the “EC50 of Aβ(1-40) cleavage, fold lower than the solanezumab-NEP fusion” value was 3 fold and the “potency of Aβ cleavage, fold over the non-targeted control” value was roughly 15 fold. In assay [4], this molecule displayed a Kd of 4.7 nM, a koff of 0.0041 s⁻¹ and an association rate constant (kon) of 880000 M⁻¹ s⁻¹. For the same molecule, the “EC50 of Aβ(1-40) cleavage (intact Aβ by ELISA)” value in assay [2] was determined as 1.3 nM. Further, in assay [7], the “EC50 of Aβ(1-42) cleavage (intact Aβ by ELISA)” value is 5 nM. Besides, in assay [8], the “EC50 of Aβ(1-40) cleavage (intact Aβ by ELISA)” value was 1.1 nM.

B12: IgG-CTF-2 format, neprolysin, crenezumab G33S(HC)/S56F(LC) (antibody)
heavy: not shown
light: DIVMTQSPLSLPVTPGEPASISCRSSQSLVYSNGDTYLHWYLQKPGQSPQLLIYKVSNRFFGVPDRFSGSGSGTDFTLKISRVEAEDVGVYYCSQSTHVPWTFGQGTKVEIKRTVAAPSVFIFPPSDEQLKSGTASVVCLLNNFYPREAKVQWKVDNALQSGNSQESVTEQDSKDSTYSLSSTLTLSKADYEKHKVYACEVTHQGLSSPVTKSFNRGEC
notes: Variant of m9
In assay [4], B12 displayed a Kd of 0.8 nM, an off-rate constant (koff) of 0.0006 s⁻¹ and an on-rate constant (kon) of 750000 M⁻¹ s⁻¹. For the same molecule, the “EC50 of Aβ(1-40) cleavage (intact Aβ by ELISA)” value in assay [2] is 2.3 nM.
